Read-outs that look alike come from different tables or passages of the source.
Tests used:
[1] = target: T1, epidermal growth factor receptor (EGFR), soluble, as used in BLI (UniProt P00533 25-645); test: BLI
T1 construct: extracellular domain; also called EGFR-ECD

[2] = target: T2, programmed death-ligand 1 (PD-L1), soluble, as used in BLI (UniProt Q9NZQ7 19-238); test: BLI
T2 construct: extracellular domain; also called PD-L1-ECD

[3] = target: T1, epidermal growth factor receptor …; test: BLI; remark: listed apart in the source
[4] = target: T2, programmed death-ligand 1 (PD-L1), …; test: BLI; remark: listed apart in the source
[5] = target: PD-L1 on cells (A431; cells of the Promega PD-L1 blockade assay kit) (UniProt Q9NZQ7 19-290); test: cell-based or functional assay
[6] = target: T3, EGFR and PD-L1 on EGFR/PD-L1 double positive A431 cells (UniProt P00533 25-1210; Q9NZQ7 19-290); test: flow cytometry on EGFR/PD-L1 double-positive A431 cells, anti-human Fc PE detection
T3 construct: whole, on cells; Two separate cell-surface proteins, not a complex; also called A431 (EGFR+/PD-L1+)

[7] = target: 273-621 (human, UniProt P00533); test: flow cytometry on yeast cells displaying truncated EGFR fragments; detection with goat anti-human Fc PE
[8] = target: 294-543 (human, UniProt P00533); test: as above
[9] = target: 475-621 (human, UniProt P00533); test: as above

T2 sequence (Q9NZQ7 19-238): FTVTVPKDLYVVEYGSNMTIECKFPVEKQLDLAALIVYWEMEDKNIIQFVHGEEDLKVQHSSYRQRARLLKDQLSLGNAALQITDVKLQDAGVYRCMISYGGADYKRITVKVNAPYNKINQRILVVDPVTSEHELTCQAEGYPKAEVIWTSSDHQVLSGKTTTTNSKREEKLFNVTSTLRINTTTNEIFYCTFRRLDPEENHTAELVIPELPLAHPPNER
Sequence of PD-L1 on cells (A431; cells of the Promega PD-L1 blockade assay kit) (Q9NZQ7 19-290): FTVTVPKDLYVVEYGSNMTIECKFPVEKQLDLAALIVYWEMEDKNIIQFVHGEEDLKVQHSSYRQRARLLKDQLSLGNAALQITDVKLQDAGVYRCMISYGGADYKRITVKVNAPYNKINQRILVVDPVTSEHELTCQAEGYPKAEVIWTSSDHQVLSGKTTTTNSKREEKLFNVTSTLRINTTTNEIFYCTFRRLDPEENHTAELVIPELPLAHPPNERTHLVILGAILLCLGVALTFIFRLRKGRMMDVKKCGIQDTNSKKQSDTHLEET

Kd [1]: 236 nM
Kd [3]: 236 nM
koff [3]: 0.0981 s⁻¹
kon [3]: 415000 M⁻¹ s⁻¹
EC50, cell-based PD-1/PD-L1 blockage assay (luciferase activity) [5]: 214 nM
EC50 [6]: 1.37 nM
binding result [7]: no binding
binding result [8]: no binding
binding result [9]: no binding
B1: HCP-LCE (heavy chain PD-L1-light chain EGFR) Two-in-One antibody (bispecific antibody, human IgG1, lambda, L234A L235A, V domains shown)
VH: AVTLDESGGGLQTPGGALSLVCKASGFDFSSYDMAWVRQAPGKGLEWVAGIKSNGPWTNYGAAVKGRATISRDNGQSTVRLQLNNLRAEDTAIYYCAKPGAGYVGWDAAGTIDSWGHGTEVIVSS
VL: ALTQPSSVSANLGETVKITCSGGAYSDCGWYQQKSPGSAPVTVIYYNDKRPSDIPSRFSGSTFGSTATLTITGVQAEDEAVYYCGGYDSRTGYVGVFGAGTTLTVLG
notes: Symmetric full-length IgG; heavy chain is the ICI2 heavy chain, lambda CL; also called 2in1
Kd [2]: 78.3 nM
Kd [4]: 78.3 nM
koff [4]: 0.0762 s⁻¹
kon [4]: 973000 M⁻¹ s⁻¹
